Assay results published in US20100168025A1 (TEXAS A AND M UNIVERSITY SYSTEM, published 2010).

Tests used:
[1] = biological target: A5 domain (immobilized acceptor on the IAsys biosensor) (UniProt P08648); assay: optical biosensor (IAsys), A5 immobilized, Kd = koff/kon
[2] = biological target: T1, recombinant α5β1 integrin (immobilized, ELISA) (UniProt P08648 42-995; P05556 21-728); assay: ELISA, DV on immobilized recombinant α5β1 integrin
T1 construct: also called a5b1 integrin

[3] = biological target: A5 domain (immobilized acceptor on the IAsys biosensor) (UniProt P08648); assay: optical biosensor (IAsys), A5 immobilized, free DV 8.0×10^-8 to 4.0×10^-7 M, global fit

T1 sequence (P08648 42-995, chain 1 of 2): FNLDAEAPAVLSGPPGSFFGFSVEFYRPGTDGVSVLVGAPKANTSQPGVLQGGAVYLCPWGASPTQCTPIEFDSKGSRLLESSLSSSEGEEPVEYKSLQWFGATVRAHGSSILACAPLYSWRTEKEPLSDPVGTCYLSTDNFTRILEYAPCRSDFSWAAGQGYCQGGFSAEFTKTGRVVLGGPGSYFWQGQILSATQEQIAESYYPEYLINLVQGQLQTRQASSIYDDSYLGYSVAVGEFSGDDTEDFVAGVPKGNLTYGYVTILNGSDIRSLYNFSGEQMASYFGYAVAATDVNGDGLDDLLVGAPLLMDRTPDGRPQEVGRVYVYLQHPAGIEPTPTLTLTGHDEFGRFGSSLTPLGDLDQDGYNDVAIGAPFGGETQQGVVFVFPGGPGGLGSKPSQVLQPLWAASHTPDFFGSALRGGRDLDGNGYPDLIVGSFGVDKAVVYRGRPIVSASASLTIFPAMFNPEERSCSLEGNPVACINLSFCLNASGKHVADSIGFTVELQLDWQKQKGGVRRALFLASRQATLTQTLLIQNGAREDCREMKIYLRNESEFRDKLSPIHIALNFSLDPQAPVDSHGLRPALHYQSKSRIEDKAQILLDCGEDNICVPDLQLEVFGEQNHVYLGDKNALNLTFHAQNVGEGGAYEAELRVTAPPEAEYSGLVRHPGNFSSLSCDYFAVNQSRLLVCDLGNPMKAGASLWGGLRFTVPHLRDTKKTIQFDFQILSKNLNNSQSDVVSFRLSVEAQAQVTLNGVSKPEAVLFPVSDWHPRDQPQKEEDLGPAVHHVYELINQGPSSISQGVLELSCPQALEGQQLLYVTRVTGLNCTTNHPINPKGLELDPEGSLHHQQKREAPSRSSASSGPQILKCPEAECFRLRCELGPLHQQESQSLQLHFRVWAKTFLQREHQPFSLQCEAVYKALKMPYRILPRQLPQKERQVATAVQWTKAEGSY
T1 sequence (P05556 21-728, chain 2 of 2): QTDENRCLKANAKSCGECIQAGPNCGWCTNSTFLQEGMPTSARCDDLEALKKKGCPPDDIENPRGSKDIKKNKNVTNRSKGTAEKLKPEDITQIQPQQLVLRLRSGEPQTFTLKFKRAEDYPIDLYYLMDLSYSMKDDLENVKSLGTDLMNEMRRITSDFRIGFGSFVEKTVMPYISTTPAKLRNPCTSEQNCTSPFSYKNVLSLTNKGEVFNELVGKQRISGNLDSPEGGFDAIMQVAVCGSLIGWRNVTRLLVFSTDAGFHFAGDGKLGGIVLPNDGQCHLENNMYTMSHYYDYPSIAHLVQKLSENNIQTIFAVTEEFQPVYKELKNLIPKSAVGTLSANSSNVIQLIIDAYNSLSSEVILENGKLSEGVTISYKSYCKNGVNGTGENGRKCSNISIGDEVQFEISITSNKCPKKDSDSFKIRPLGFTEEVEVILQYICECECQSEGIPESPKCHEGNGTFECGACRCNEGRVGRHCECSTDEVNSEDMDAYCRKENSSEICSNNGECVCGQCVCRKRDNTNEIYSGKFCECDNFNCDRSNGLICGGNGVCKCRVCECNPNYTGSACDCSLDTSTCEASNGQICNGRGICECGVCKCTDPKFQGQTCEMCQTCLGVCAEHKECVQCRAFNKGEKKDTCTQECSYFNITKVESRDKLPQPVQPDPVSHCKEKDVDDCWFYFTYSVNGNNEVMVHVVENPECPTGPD

- Kd [1]: 160 nM
- Kd [2]: ~30 nM
- koff [3]: 0.72 s⁻¹
- kon [3]: 3.8e+06 M⁻¹ s⁻¹
B1: perlecan Domain V (recombinant, C-terminal 6×His tag) (ligand)
chain: EIKITFRPDSADGMLLYNGQKRVPGSPTNLANRQPDFISFGLVGGRPEFRFDAGSGMATIRHPTPLALGHFHTVTLLRSLTQGSLIVGDLAPVNGTSQGKFQGLDLNEELYLGGYPDYGAIPKAGLSSGFIGCVRELRIQGEEIVFHDLNLTAHGISHCPTCRDRPCQNGGQCHDSESSSYVCVCPAGFTGSRCEHSQALHCHPEACGPDATCVNRPDGRGYTCRCHLGRSGLRCEEGVTVTTPSLSGAGSYLALPALTNTHHELRLDVEFKPLAPDGVLLFSGGKSGPVEDFVSLAMVGGHLEFRYELGSGLAVLRSAEPLALGRWHRVSAERLNKDGSLRVNGGRPVLRSSPGKSQGLNLHTLLYLGGVEPSVPLSPATNMSAHFRGCVGEVSVNGKRLDLTYSFLGSQGIGQCYDSSPCERQPCQHGATCMPAGEYEFQCLCRDGFKGDLCEHEENPCQLREPCLHGGTCQGTRCLCLPGFSGPRCQQGSGHGIAESDWHLEGSGGNDAPGQYGAYFHDDGFLAFPGHVFSRSLPEVPETIELEVRTSTASGLLLWQGVEVGEAGQGKDFISLGLQDGHLVFRYQLGSGEARLVSEDPINDGEWHRVTALREGRRGSIQVDGEELVSGRSPGPNVAVNAKGSVYIGGAPDVATLTGGRFSSGITGCVKNLVLHSARPGAPPPQPLDLQHRAQAGANTRPCPSHHHHHH
notes: domain: domain V; Secreted from transfected 293FT cells and purified on Ni beads; also called DV; endorepellin
